# Assay results reported in paper PMC4027167, “The histone chaperones Vps75 and Nap1 form ring-like, tetrameric structures in solution” (Nucleic Acids Research, 2014).
# Columns and labels:
# [1] = biological target: Nap1 L120C dimers labelled with Maleimide-PEG2-Biotin (budding yeast) (UniProt P25293); experiment: BLI; biotinylated chaperone dimers on streptavidin biosensors, unlabelled wild-type chaperone in solution; 150 mM NaCl, 20 mM HEPES.KOH pH 7.5, 0.1% BSA; steady state, one site saturation fit; two dimers to tetramer
# [2] = biological target: Nucleosome Assembly Protein 1 (Nap1) (budding yeast) (UniProt P25293); experiment: SEC-MALS; 150 mM NaCl, 20 mM HEPES-KOH pH 7.5; MAbPac SEC-1 column (Figure 1) or Superdex S200 10/300 (Figures 5 and 7)
# [3] = biological target: Nucleosome Assembly Protein 1 (Nap1) (budding yeast) (UniProt P25293); experiment: SEC-MALS; 500 mM NaCl, 20 mM HEPES-KOH pH 7.5; MAbPac SEC-1 column (Figure 1) or Superdex S200 10/300 (Figure 7)
# [4] = biological target: Vps75 Y35C dimers labelled with Maleimide-PEG2-Biotin (budding yeast) (UniProt P53853); experiment: BLI; biotinylated chaperone dimers on streptavidin biosensors, unlabelled wild-type chaperone in solution; 150 mM NaCl, 20 mM HEPES.KOH pH 7.5, 0.1% BSA; steady state, one site saturation fit; two dimers to tetramer
# [5] = biological target: Vps75, full-length (budding yeast) (UniProt P53853); experiment: SEC-MALS; 150 mM NaCl, 20 mM HEPES-KOH pH 7.5; MAbPac SEC-1 column (Figure 1) or Superdex S200 10/300 (Figures 5 and 7)
# [6] = biological target: Vps75, full-length (budding yeast) (UniProt P53853); experiment: SEC-MALS; 500 mM NaCl, 20 mM HEPES-KOH pH 7.5; MAbPac SEC-1 column (Figure 1) or Superdex S200 10/300 (Figure 7)
# [7] = biological target: Vps75, full-length (budding yeast) (UniProt P53853); experiment: SAXS; 500 mM NaCl, 0.5 to 10 mg/ml, 10°C
# [8] = biological target: Vps75, full-length (budding yeast) (UniProt P53853); experiment: SAXS; 150 mM NaCl, 0.5 to 10 mg/ml, 10°C
# [9] = biological target: Vps75 lacking the unstructured C-terminal domain (residues 1–223) (budding yeast) (UniProt P53853); experiment: SEC-MALS; 150 mM NaCl, 20 mM HEPES-KOH pH 7.5; MAbPac SEC-1 column (Figure 1) or Superdex S200 10/300 (Figures 5 and 7)
# [10] = biological target: Vps75 lacking the unstructured C-terminal domain (residues 1–223) (budding yeast) (UniProt P53853); experiment: SEC-MALS; 500 mM NaCl, 20 mM HEPES-KOH pH 7.5; MAbPac SEC-1 column (Figure 1) or Superdex S200 10/300 (Figure 7)
# [11] = biological target: Vps75 lacking the unstructured C-terminal domain (residues 1–223) (budding yeast) (UniProt P53853); experiment: SAXS; 500 mM NaCl, 0.5 to 10 mg/ml, 10°C
# [12] = biological target: the molecule itself; experiment: SEC-MALS; 150 mM NaCl, 20 mM HEPES-KOH pH 7.5; MAbPac SEC-1 column (Figure 1) or Superdex S200 10/300 (Figures 5 and 7)
# [13] = biological target: the molecule itself; experiment: PELDOR; spin-labelled protein, 100–150 μM dimer, 500 mM NaCl, 20 mM HEPES-KOH pH 7.5 in deuterium oxide, mixed 1:1 with D8-glycerol; dimeric conditions
# [14] = biological target: the molecule itself; experiment: PELDOR; spin-labelled protein, 100–150 μM dimer, 150 mM NaCl, 20 mM HEPES-KOH pH 7.5 in deuterium oxide, mixed 1:1 with D8-glycerol; tetrameric conditions
# [15] = biological target: the molecule itself; experiment: SEC-MALS; run at 500 mM NaCl after disulphide cross-linking via K78C at 150 mM NaCl
# Vps75 lacking the unstructured C-terminal domain (residues 1–223), sequence (P53853 1-223): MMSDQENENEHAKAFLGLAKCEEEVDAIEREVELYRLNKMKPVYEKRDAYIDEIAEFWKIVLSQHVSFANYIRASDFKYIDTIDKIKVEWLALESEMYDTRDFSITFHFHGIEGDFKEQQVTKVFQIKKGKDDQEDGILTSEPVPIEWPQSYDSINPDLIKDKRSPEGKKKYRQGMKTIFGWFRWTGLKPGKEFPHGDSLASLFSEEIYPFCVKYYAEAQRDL
molecule,measurement,setting,value
Nucleosome Assembly Protein 1 (Nap1) (from UniProt P25293 1-417) (natural protein),Kd,[1],3.57 µM
same,stoichiometry N,[2],4
same,stoichiometry N,[3],2
"Vps75, full-length (from UniProt P53853 1-264) (natural protein)",Kd,[4],0.6 µM
same,stoichiometry N,[5],4
same,stoichiometry N,[6],2
same,stoichiometry N,[7],2
same,stoichiometry N,[8],4
Vps75 lacking the unstructured C-terminal domain (residues 1–223) (from UniProt P53853 1-223) (domain or fragment),stoichiometry N,[9],4
same,stoichiometry N,[10],2
same,stoichiometry N,[11],2
"Nap1 PPP mutant (R301P, T302P, K305P) (natural protein) MSDPIRTKPKSSMQIDNAPTPHNTPASVLNPSYLKNGNPVRAQAQEQDDKIGTINEEDILANQPLLLQSIQDRLGSLVGQDSGYVGGLPKNVKEKLLSLKTLQSELFEVEKEFQVEMFELENKFLQKYKPIWEQRSRIISGQEQPKPEQIAKGQEIVESLNETELLVDEEEKAQNDSEEEQVKGIPSFWLTALENLPIVADTITDRDAEVLEYLQDIGLEYLTDGRPGFKLLFRFDSSANPFFTNDILAKTYFYQKELGYSGDFIYDHAEGAEISWKDNAHNVTVDLEMRKQRNKTTKQVPPIEPITPIESFFNFFDPPKIQNEDQDEELEEDLEERLALDYSIGEQLKDKLIPRAVDWFTGAALEFEFEEDEEEADEDEDEEEDDDHGLEDDDGESAEEQDDFAGRPEQAPEAKQS",stoichiometry N,[12],~2
"Nap1 T251R1 (natural protein, budding yeast, UniProt P25293 1-417, looked up, MTSL spin label (R1) on cysteine 251; deuterated protein, Nap1 of budding yeast, open reading frame, unique cysteine at position 251; also called Nap1 T251C; not shown: His6, N-terminal, cleaved) MSDPIRTKPKSSMQIDNAPTPHNTPASVLNPSYLKNGNPVRAQAQEQDDKIGTINEEDILANQPLLLQSIQDRLGSLVGQDSGYVGGLPKNVKEKLLSLKTLQSELFEVEKEFQVEMFELENKFLQKYKPIWEQRSRIISGQEQPKPEQIAKGQEIVESLNETELLVDEEEKAQNDSEEEQVKGIPSFWLTALENLPIVADTITDRDAEVLEYLQDIGLEYLTDGRPGFKLLFRFDSSANPFFTNDILAKCYFYQKELGYSGDFIYDHAEGAEISWKDNAHNVTVDLEMRKQRNKTTKQVRTIEKITPIESFFNFFDPPKIQNEDQDEELEEDLEERLALDYSIGEQLKDKLIPRAVDWFTGAALEFEFEEDEEEADEDEDEEEDDDHGLEDDDGESAEEQDDFAGRPEQAPEAKQS",stoichiometry N,[13],2
same,stoichiometry N,[14],4
"Nap1 E209R1 (natural protein, budding yeast, UniProt P25293 1-417, looked up, MTSL spin label (R1) on cysteine 209; deuterated protein, Nap1 of budding yeast, open reading frame, unique cysteine at position 209; also called Nap1 E209C; not shown: His6, N-terminal, cleaved) MSDPIRTKPKSSMQIDNAPTPHNTPASVLNPSYLKNGNPVRAQAQEQDDKIGTINEEDILANQPLLLQSIQDRLGSLVGQDSGYVGGLPKNVKEKLLSLKTLQSELFEVEKEFQVEMFELENKFLQKYKPIWEQRSRIISGQEQPKPEQIAKGQEIVESLNETELLVDEEEKAQNDSEEEQVKGIPSFWLTALENLPIVADTITDRDACVLEYLQDIGLEYLTDGRPGFKLLFRFDSSANPFFTNDILAKTYFYQKELGYSGDFIYDHAEGAEISWKDNAHNVTVDLEMRKQRNKTTKQVRTIEKITPIESFFNFFDPPKIQNEDQDEELEEDLEERLALDYSIGEQLKDKLIPRAVDWFTGAALEFEFEEDEEEADEDEDEEEDDDHGLEDDDGESAEEQDDFAGRPEQAPEAKQS",stoichiometry N,[13],2
same,stoichiometry N,[14],4
"Nap1 T307R1 (natural protein, budding yeast, UniProt P25293 1-417, looked up, MTSL spin label (R1) on cysteine 307; deuterated protein, Nap1 of budding yeast, open reading frame, unique cysteine at position 307; also called Nap1 T307C; not shown: His6, N-terminal, cleaved) MSDPIRTKPKSSMQIDNAPTPHNTPASVLNPSYLKNGNPVRAQAQEQDDKIGTINEEDILANQPLLLQSIQDRLGSLVGQDSGYVGGLPKNVKEKLLSLKTLQSELFEVEKEFQVEMFELENKFLQKYKPIWEQRSRIISGQEQPKPEQIAKGQEIVESLNETELLVDEEEKAQNDSEEEQVKGIPSFWLTALENLPIVADTITDRDAEVLEYLQDIGLEYLTDGRPGFKLLFRFDSSANPFFTNDILAKTYFYQKELGYSGDFIYDHAEGAEISWKDNAHNVTVDLEMRKQRNKTTKQVRTIEKICPIESFFNFFDPPKIQNEDQDEELEEDLEERLALDYSIGEQLKDKLIPRAVDWFTGAALEFEFEEDEEEADEDEDEEEDDDHGLEDDDGESAEEQDDFAGRPEQAPEAKQS",stoichiometry N,[13],2
same,stoichiometry N,[14],4
"Vps75 K117R1 (natural protein, budding yeast, UniProt P53853 1-264, looked up, MTSL spin label (R1) on cysteine 117; deuterated protein, Vps75 of budding yeast, open reading frame, unique cysteine at position 117; also called Vps75 K117C; not shown: His6, N-terminal, cleaved) MMSDQENENEHAKAFLGLAKAEEEVDAIEREVELYRLNKMKPVYEKRDAYIDEIAEFWKIVLSQHVSFANYIRASDFKYIDTIDKIKVEWLALESEMYDTRDFSITFHFHGIEGDFCEQQVTKVFQIKKGKDDQEDGILTSEPVPIEWPQSYDSINPDLIKDKRSPEGKKKYRQGMKTIFGWFRWTGLKPGKEFPHGDSLASLFSEEIYPFAVKYYAEAQRDLEDEEGESGLSADGDSEDDDGSLGEVDLPLSDEEPSSKKRKV",stoichiometry N,[14],4
"Vps75 R164D (natural protein, budding yeast, UniProt P53853 1-264, looked up, Vps75 of budding yeast, point mutant in the C21A/C212A construct) MMSDQENENEHAKAFLGLAKAEEEVDAIEREVELYRLNKMKPVYEKRDAYIDEIAEFWKIVLSQHVSFANYIRASDFKYIDTIDKIKVEWLALESEMYDTRDFSITFHFHGIEGDFKEQQVTKVFQIKKGKDDQEDGILTSEPVPIEWPQSYDSINPDLIKDKDSPEGKKKYRQGMKTIFGWFRWTGLKPGKEFPHGDSLASLFSEEIYPFAVKYYAEAQRDLEDEEGESGLSADGDSEDDDGSLGEVDLPLSDEEPSSKKRKV",stoichiometry N,[12],~2
"Vps75 K169E (natural protein, budding yeast, UniProt P53853 1-264, looked up, Vps75 of budding yeast, point mutant in the C21A/C212A construct) MMSDQENENEHAKAFLGLAKAEEEVDAIEREVELYRLNKMKPVYEKRDAYIDEIAEFWKIVLSQHVSFANYIRASDFKYIDTIDKIKVEWLALESEMYDTRDFSITFHFHGIEGDFKEQQVTKVFQIKKGKDDQEDGILTSEPVPIEWPQSYDSINPDLIKDKRSPEGEKKYRQGMKTIFGWFRWTGLKPGKEFPHGDSLASLFSEEIYPFAVKYYAEAQRDLEDEEGESGLSADGDSEDDDGSLGEVDLPLSDEEPSSKKRKV",stoichiometry N,[12],~2
"Vps75 K170E (natural protein, budding yeast, UniProt P53853 1-264, looked up, Vps75 of budding yeast, point mutant in the C21A/C212A construct) MMSDQENENEHAKAFLGLAKAEEEVDAIEREVELYRLNKMKPVYEKRDAYIDEIAEFWKIVLSQHVSFANYIRASDFKYIDTIDKIKVEWLALESEMYDTRDFSITFHFHGIEGDFKEQQVTKVFQIKKGKDDQEDGILTSEPVPIEWPQSYDSINPDLIKDKRSPEGKEKYRQGMKTIFGWFRWTGLKPGKEFPHGDSLASLFSEEIYPFAVKYYAEAQRDLEDEEGESGLSADGDSEDDDGSLGEVDLPLSDEEPSSKKRKV",stoichiometry N,[12],~2
"Vps75 E56R1 (natural protein, budding yeast, UniProt P53853 1-264, looked up, MTSL spin label (R1) on cysteine 56; deuterated protein, Vps75 of budding yeast, open reading frame, unique cysteine at position 56; also called Vps75 E56C; not shown: His6, N-terminal, cleaved) MMSDQENENEHAKAFLGLAKAEEEVDAIEREVELYRLNKMKPVYEKRDAYIDEIACFWKIVLSQHVSFANYIRASDFKYIDTIDKIKVEWLALESEMYDTRDFSITFHFHGIEGDFKEQQVTKVFQIKKGKDDQEDGILTSEPVPIEWPQSYDSINPDLIKDKRSPEGKKKYRQGMKTIFGWFRWTGLKPGKEFPHGDSLASLFSEEIYPFAVKYYAEAQRDLEDEEGESGLSADGDSEDDDGSLGEVDLPLSDEEPSSKKRKV",stoichiometry N,[14],4
"Vps75 K78C (natural protein, budding yeast, UniProt P53853 1-264, looked up, disulphide between cysteine 78 of opposing dimers after oxidation with Cu (II) phenanthroline, Vps75 of budding yeast, point mutant in the C21A/C212A construct) MMSDQENENEHAKAFLGLAKAEEEVDAIEREVELYRLNKMKPVYEKRDAYIDEIAEFWKIVLSQHVSFANYIRASDFCYIDTIDKIKVEWLALESEMYDTRDFSITFHFHGIEGDFKEQQVTKVFQIKKGKDDQEDGILTSEPVPIEWPQSYDSINPDLIKDKRSPEGKKKYRQGMKTIFGWFRWTGLKPGKEFPHGDSLASLFSEEIYPFAVKYYAEAQRDLEDEEGESGLSADGDSEDDDGSLGEVDLPLSDEEPSSKKRKV",stoichiometry N,[15],4
"Vps75 triple mutant protein (R164D, K169E, K170E) (natural protein, budding yeast, UniProt P53853 1-264, looked up, Vps75 of budding yeast, mutant in the C21A/C212A construct) MMSDQENENEHAKAFLGLAKAEEEVDAIEREVELYRLNKMKPVYEKRDAYIDEIAEFWKIVLSQHVSFANYIRASDFKYIDTIDKIKVEWLALESEMYDTRDFSITFHFHGIEGDFKEQQVTKVFQIKKGKDDQEDGILTSEPVPIEWPQSYDSINPDLIKDKDSPEGEEKYRQGMKTIFGWFRWTGLKPGKEFPHGDSLASLFSEEIYPFAVKYYAEAQRDLEDEEGESGLSADGDSEDDDGSLGEVDLPLSDEEPSSKKRKV",stoichiometry N,[12],2
